Source: IntAct's records for PubMed 16615911

B1: E3 ubiquitin-protein ligase SIAH1A (Mus musculus), P61092 (parent)
chain: MSRQTATALPTGTSKCPPSQRVPALTGTTASNNDLASLFECPVCFDYVLPPILQCQSGHLVCSNCRPKLTCCPTCRGPLGSIRNLAMEKVANSVLFPCKYASSGCEITLPHTEKAEHEELCEFRPYSCPCPGASCKWQGSLDAVMPHLMHQHKSITTLQGEDIVFLATDINLPGAVDWVMMQSCFGFHFMLVLEKQEKYDGHQQFFAIVQLIGTRKQAENFAYRLELNGHRRRLTWEATPRSIHEGIATAIMNSDCLVFDTSIAQLFAENGNLGINVTISMC
partner: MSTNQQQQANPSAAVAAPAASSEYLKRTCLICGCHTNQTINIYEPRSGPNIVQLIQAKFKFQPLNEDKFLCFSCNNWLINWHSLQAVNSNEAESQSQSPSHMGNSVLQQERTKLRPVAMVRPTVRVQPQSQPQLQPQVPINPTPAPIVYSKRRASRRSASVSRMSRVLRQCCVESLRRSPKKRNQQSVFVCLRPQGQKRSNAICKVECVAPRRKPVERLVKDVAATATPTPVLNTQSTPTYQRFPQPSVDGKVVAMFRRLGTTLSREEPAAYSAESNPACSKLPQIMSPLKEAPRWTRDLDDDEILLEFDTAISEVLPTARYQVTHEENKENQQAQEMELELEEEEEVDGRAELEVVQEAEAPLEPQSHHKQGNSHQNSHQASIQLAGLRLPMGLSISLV

Variants of: B1
Conditions: with phyl_drome phyl

effect of a mutation on the interaction	Variant
disrupting interaction strength	L158D
disrupting interaction	M180K
